Experimental data published in a protein production outcome set (Wang et al. 2014).

Assay: label from the status in PepcDB records
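Note: failed if final PepcDB status was selected cloned or expressed and not failed if soluble or beyond.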

Sequence	protein production
MKIVSKSSPLPLHYQLKMILQEMIENEELLPGDTIPTERELCEIQKISRMTVNKAILSLVSEGILYREQGKGTFVAKKKEKQQLTKLKSFTEEMREKGLNISTKILSFEIKTATKHISTLLELPHKKMKVIEIIRLRLTDNDPSAIETVVLPLYLFSDMTKEVIDGKSLYNTFREKYGYEPTKAKQTIEPIMLTDYEAKFLNQVGNSLALLFRRLTYRKDGVPIEYTKSIYRSEKYKYEVILT	failed
MKIYASDEQYKQMNEELDERVESLVSELTLDEKIRLMCQYQEAVPRLGIGKYKHGTEGAHGVAWLGKATVFPQNIGLGCTWNEELMKKIGDVIAEEARVYYQENPEQNGLTIWAPTVDMERDPRWGRTEEAYGEDPYLTGKLTTELIKGMQGDHPFYLKTAATLKHFLANNNEEARTECSVSIDPRNLREYYLKAFEPQVKEGHVQCVMTAYNAVNGTLCNMNPDVNAILKEEWGLQGFVVSDACDVVGSVDDHQFVESYAEAVALSIKNGIDNVTDDEKIIHRAIGDALEQGLLSEEDLDQALKRVFRVRIRLGEFDQENKNPYATVAKEKLCA	failed
MKIYFEAYGCTLNQGETALYVNKLLNEGNTLVSNPKEADLSIIGTCAVIKKTEDHMMARIQNLSRFGKVEVIGCLAPVKGKTMVEDNVSVIEKDRFRSFQEVIDEVSPVNAEIVSGIPINQGCTGKCNFCVSHIARGKLVSRKPEKIAGQIKILLQRGIKEIKITSLDTAAYGKDIGLRLPHLIRTITEIGDDFRLRVGMMEPKNTLEIVDDLISAYRSEKVFKFLHLPVQSGDDYVLEVMNREYTVSDFIRITGKFREAFPDSTLSTDLIIGYYAENDDSFEKTVQLIEKIRPEIINVTKFSPRELTADFEKRPKPTNILKEQDRMIADMHKEILQEKFSNLIGKTEFVLITENGKGRSMIGRDHAYRPIVIMDKTRKFEFHQVEITGFENTSLIGRIIDLEHHHHHH	failed
MKKAMLLIKNGKILTMTGVNYDSGSVLIDNGKIIKVGENIDVDESCEIIDADGFWVMPGIIEAHCHVGIQEEKRGFEGNDCNEMTNPVTPYLRALDGINPMDSAFYTALTAGITGIMVGPGSANVVGGQWMFLKTYGRAIDKMVVLQPSAMKIAFGENPKANYDKKNMMPSTRIAIAAMLREELFEAQQYYEKRKNAEKSGDSFNKEFRKECWVPVFDKKIPLKAHVHRADDILTAIRIAKEFNLNLTLDHCTEGHLVAKEIKESGFPAIVGPTLTSRNKIETQYADFKTAGILHNEGVKVAITTDHPVTRIQDLLICAGLAAKEGLGIEEGLKAITINPAEICNVANRVGSIEVNKDADIAIFDGNPMETFTKTMYTIINGEIVYSLKDKNY	failed
MKKDLISVVMSAYNSEKFISDSISSILDQTYENWELIIINDASSDNTLKIVNQFSEKDPRIKVIDNENNLGLTISLNIGINNSKGEFIARLDSDDFAEPSRLEKELDHLHAYPEAGLVGSGAHLINSSGNKIGSMNVMSQPYFVNRFLINLNPFIHSSIMVRKKALDNVGSYREKFRYSQDYDLILRLSDKYKLSNIALPLIRWRVSDSSVTMQHHTLQRIYADIAREFAIERRNSGHDSYESTEFDTLIHEMRIRNQGRYLCDHGVYDLLFNKKYKEGCSELIKGISKGGFPYNSFYRGITQVISKVNIQLEHHHHHH	failed
MKKEKKDYYEILGVPRDATQEEIKRAYKRLVKEWHPDRHPENRKEAEQRFKEIQEAYEVLSDPQKRAMYDRFGYVGEQPTYQETESGGFFDDIFRDFENIFNRDIFDVFFGERPHQEERREYARRGEDIRYEIEVTLSDLINGAEIPVEYERYETCPRCGGTGVEPNAGYMDCPSCGGTGRIREERRSFFGYFVSERTCERCGGTGKIPREYCHECGGSGRVLRKVRRTVKIPPNVEDGTHLRITGGGNAGYYGGPYGDLIIIVRVKPDPRFKKSGSDLVYDVTIDYLQAILGTTVEVPLPEGGTTMLKIPPGTQPETVFRLKGKGLPNRYGRRGDLIVNVHVEIPKSLSREERKVLEELAKKRGVTIG	failed
MKKFKFTLFSLLVIIFSGLLIQRFSGYFYTTPVGIVKSVKIIDSEQLLTVKLVNNTKKTVVVKVKFNGNESTNPVFNKNNQILLDNSTKKWEFISLKRDGYTFILVVSFVSLVLGIAGKKGFFSLVGILFNIIFLFFLLWINQRNRSINLLLLISIYTIIAIIISTGTLYGLKKIDLRKVLATIFSVFLSYFITTITMKLLNDQGLRYEEMQFLTRPYRTVFLASLMLGGIGAALDNVVVIISSLDQLVRHTPEINTKELIESGKNIASDTTTSMINVLLFAYLSSATPFFIFYLANGWDFVETFKMHLSLEIMRILCGGLAILFTIPSSFLFFLLFKKIKKEGENR	failed
MKKFPELRKYTNPVWVRLVILCQKKLKVCFIMFIVMSISTSAEIYYEEAEEFLSKGDLVQACEKYYKAAEEAIKLLVIENNLKEIINEAEEHGWDSKTLNDAVTELSYKLGDNIIDMWASAVTLFTARKFMDKDLIENYKKDIKTLIEEAKQRFSIKVLKLEHHHHHH	failed
MKKFSAIFGLLSVIFVIMAISQVSGLSGAITPPKIDIMVNASNGLPQDINSIIYVKNPNSFPVKVEMVTTGDLNNSKKVEVKIMKNNFTLKPGETVGVNITFTVKEKDNYEGDILTKISPVDYGDDKKGVNLKASVVLPTKVAIMVVGNEIHTKELVITAVLIISILGLGAMLIRRHL	failed
MKKGLTFSITSAALFFGMNHVASADQIHTVKEDAKLTDIAQTFATTTTEIQNLNHLQNRDYVQVGETIVLPDSDIVEVKDGDTIKAIAERHQMTMNQLYQLNPNLGEVIYPGQLVAVSEKGSAHLNNQLQQIFNSHEAVQPTAQINDDERNKAENNTIRNVRTSGNITPSATQTWQNNDYSASDRQQVSNTTANEQVTSNYQYSPVSHASNGSNYYDWGQCTYYAFDRRQQLGKSVGNLWGNANNWASAAQQSGYQVNNTPEVGAIFQSTAGNYGHVGVVESKNADGSIVVSEMNWQGVGQKSYRTIHNTGQYNYIHLEHHHHHH	failed
MKKGYMYIALTTIIFSTMEIALKLVSKSFNPIQLNFTRFFIGGLFLVPFALNTLHKRHLSISTKDLRFFALLGLLGTVISMSLYQLAVQNTKASVVAVLFSCNPVFVTILAFFLLREAIHKNNIAALILEVIGTIVIIDPLNTKLSILGLALTIASTLIFAAYGVFGKKKCAKYGGIVVTCFGFLFGSIEMLVLIGITHITPIANLFSSNGIAIFSNIPLFTGYSLKNLPLMCFICLINTGAGFACYFKAMEETSAQTTSLVFFFKPILAPILALILLHEIIPVNMIIGILFILAGSISSILPELLAQRQTKLEKTA	failed
MKKIATATIATAGIATFAFAHHDAQAAEQNNDGYNPNDPYSYSYTYTIDAEGNYHYTWKGNWSPDRVNTSYNYNNYNNYNYYGYNNYSNYNNYSNYNNYNNYQSNNTQSQRTTQPTGGLGASYSTSSSNVHVTTTSAPSSNGVSLSNARSASGNLYTSGQCTYYVFDRVGGKIGSTWGNANNWANAAARSGYTVNNSPAKGAILQTSQGAYGHVAYVEGVNSNGSIRVSEMNYGHGAGVVTSRTISASQAASYNYIHLEHHHHHH	failed
MKKIFVIITTLLAVAIIIGSIITVVFSQRQAQTFKIQQQQFVKKPIPTLFLHGFGGSANSEKFMVKQAEKRGVTKDIITAYVSKDGAVTFKGKLRKDAVNPIVKIELENNRQGYLDKNAAWFKNVLTKLQSEYNFDKFNFVGHSMGNLTFAQYMMTYGNDKSLPQLNKQVNIAGTFNGVLNMNEDVNEITVDKDGKPSRMNQPYQQLRVLKDIYKGKGIEVLNIYGDLKDGTHSDGRVSNSSSKSLKYLLGNSPKSYRESKYEGEPAQHSQLHENENVANELIDFLWKK	failed
MKKIGILTSGGDCGGLNAVIKGAALMALNKGLELYVIPNGYAGLYNLLNQDRLVRLDEARLDQFQASFAGSEAGHSRVKIKAISNPDKYNRIKVGMKKFDLDALIISGGDDSGSVMIDLNHNGIQCIHCPKTMDLDLQTYSVGGDSTINRIAQFVEDLKTTGRTHNRVLVTEVFGRYAGHTAFRSGVAAEADCILIPEIPVDWDVVYEHIVERFTRRIRQSDVHSGTYTIVVAEGMKNADGTDIVDESAGIDAFGHKKLAGAGKYVCQEIKKRFKTDPRMPQFMKDTGMFVEGIYEIPEVREVHPGHLVRAGHSSAYDINFGFEAGAAAVLLLLEGKTGVTISKVKGRKIEYIEASKAIEQRYVDLDQVAMYESIGTCFGRTPAAYEPILREVDGVYERIY	failed
